Measured values reported in publication PMC5330840.

Molecular target: Entamoeba histolytica ADP-forming acetyl-CoA synthetase, wild type (Entamoeba histolytica)
Test: SEC

## Entamoeba histolytica ADP-forming acetyl-CoA synthetase, wild type (enzyme)
  stoichiometry N: 2
